Values quoted from earlier work in patent publication US6552168B1, “Gamma-ketoacid tetrapeptides as inhibitors of caspase-3” (Merck Frosst Canada & Co., priority 1998, dated 2003).

What was measured:
caspase-1 = biological target: T1, caspase-1 (Homo sapiens, UniProt P29466)
T1 sequence (P29466 120-297 limits assumed): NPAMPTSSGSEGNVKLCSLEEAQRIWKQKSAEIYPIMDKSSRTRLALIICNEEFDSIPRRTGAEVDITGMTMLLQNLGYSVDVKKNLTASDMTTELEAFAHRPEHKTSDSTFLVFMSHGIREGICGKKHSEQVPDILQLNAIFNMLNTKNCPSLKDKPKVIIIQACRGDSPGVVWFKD
T1 sequence (P29466 317-404 limits assumed): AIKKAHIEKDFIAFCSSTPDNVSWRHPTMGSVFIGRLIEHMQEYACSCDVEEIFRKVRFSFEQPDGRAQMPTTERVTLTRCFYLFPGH

caspase-3 = biological target: T2, caspase-3 (Homo sapiens, UniProt P42574)
T2 sequence (P42574 29-175 limits assumed): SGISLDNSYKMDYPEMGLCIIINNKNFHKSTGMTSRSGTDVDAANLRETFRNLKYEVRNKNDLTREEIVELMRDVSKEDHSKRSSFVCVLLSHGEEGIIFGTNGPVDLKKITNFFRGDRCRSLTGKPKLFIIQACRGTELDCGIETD
T2 sequence (P42574 176-277 limits assumed): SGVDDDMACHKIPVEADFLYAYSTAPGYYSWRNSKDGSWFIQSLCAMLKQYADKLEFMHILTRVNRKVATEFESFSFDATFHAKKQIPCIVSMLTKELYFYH

Ac-YVAD-CHO
Ki (caspase-1): < 0.001 µM
kon caspase-1 (caspase-1; slow-binding time-dependent inhibition): 380000 M⁻¹ s⁻¹
Ki (caspase-3): 12 µM
